The conditions of the data set: Pseudomonas aeruginosa (strain ATCC 15692 / DSM 22644 / CIP 104116 / JCM 14847 / LMG 12228 / 1C / PRS 101 / PAO1), pH 7.5, GdnHCl, Fluorescence, Tris 1 mM, NaCl 1.93 M, reversible: Yes, whole UniProt chain shown.

Several values for one entry are separate records, joined by “and”; a condition that tells them apart may be missing. Identical values can stand only once.

B1: Azurin wild type, P00282 (protein)
chain: MLRKLAAVSLLSLLSAPLLAAECSVDIQGNDQMQFNTNAITVDKSCKQFTVNLSHPGNLPKNVMGHNWVLSTAADMQGVVTDGMASGLDKDYLKPDDSRVIAHTKLIGSGEKDSVTFDVSKLKEGEQYMFFCTFPGHSALMKGTLTLK
With B1, the denaturant m value was 5.53 kcal/mol/M (20 °C); 3.63 kcal/mol/M and 6.66 kcal/mol/M (-8 °C); 3.77 kcal/mol/M (-10 °C); 3.85 kcal/mol/M and 6.98 kcal/mol/M (-12 °C). The “denaturant midpoint (higher = more stable)” value reads like this: (20 °C) 1.74 M; (-8 °C) 1.79 M and 1.58 M; (-10 °C) 1.73 M; (-12 °C) 1.7 M and 1.5 M. Moreover, the unfolding free energy runs as follows: (20 °C) 9.63 kcal/mol; (-8 °C) 6.89 kcal/mol and 10.5 kcal/mol; (-10 °C) 6.83 kcal/mol; (-12 °C) 6.77 kcal/mol and 10.5 kcal/mol.

For the origin of these results see FireProtDB (doi:10.1529/biophysj.106.099531).
